Laboratory results taken from the supplement of paper PMC9112550, “Optimization of the antimicrobial peptide Bac7 by deep mutational scanning” (BMC Biology, 2022).

test system: Escherichia coli TOP10; experiment: shrunken log2 fold change of peptide-encoding DNA abundance (4.5 h post-induction vs induction); higher = less antimicrobial activity (less host growth inhibition); conditions: time post-induction: 4.5 h; library: site-saturation at positions 5, 18, 19, 20
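Note: peptides expressed intracellularly from a pBAD plasmid library in pooled LB shake-flask culture, induced with 0.3% L-arabinose, DNA abundance read by NGS, three biological replicates, DESeq2 with apeglm shrinkage.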

| Sequence | shrunken log2 fold change |
| --- | --- |
| RRIRIRPPRLPRPRPRPFDTPRP | 0.0514 |
| RRIRRRPPRLPRPRPRPGSLPRP | -0.00238 |
| RRIRHRPPRLPRPRPRPVWEPRP | 0.107 |
| RRIRVRPPRLPRPRPRPMHFPRP | -0.409 |
| RRIRERPPRLPRPRPRPISVPRP | -0.137 |
| RRIRSRPPRLPRPRPRPMIFPRP | -0.325 |
| RRIRSRPPRLPRPRPRPQQYPRP | -0.525 |
| RRIRNRPPRLPRPRPRPAMEPRP | 0.243 |
| RRIRYRPPRLPRPRPRPGTVPRP | 0.0427 |
| RRIRNRPPRLPRPRPRPNYLPRP | -0.354 |
| RRIRVRPPRLPRPRPRPNAGPRP | 0.0323 |
| RRIRIRPPRLPRPRPRPRVKPRP | -0.0816 |
| RRIRIRPPRLPRPRPRPTFYPRP | -0.462 |
| RRIRQRPPRLPRPRPRPHKKPRP | -0.215 |
| RRIRQRPPRLPRPRPRPRATPRP | 0.138 |
| RRIRTRPPRLPRPRPRPHNYPRP | -0.329 |
| RRIRQRPPRLPRPRPRPTIIPRP | -0.244 |
| RRIRDRPPRLPRPRPRPCMIPRP | 0.28 |
| RRIRLRPPRLPRPRPRPWDEPRP | 0.066 |
| RRIRDRPPRLPRPRPRPCSHPRP | -0.0198 |
| RRIRVRPPRLPRPRPRPVCCPRP | 0.0608 |
| RRIRSRPPRLPRPRPRPRGDPRP | 0.477 |
| RRIRWRPPRLPRPRPRPDYKPRP | -0.0643 |
| RRIRFRPPRLPRPRPRPSLWPRP | 0.29 |
| RRIRSRPPRLPRPRPRPIPQPRP | -0.402 |

| Sequence | shrunken log2 fold change |
| --- | --- |
| RRIRTRPPRLPRPRPRPPCMPRP | 0.0978 |
| RRIRIRPPRLPRPRPRPAYIPRP | 0.011 |
| RRIRWRPPRLPRPRPRPRLIPRP | 0.55 |
| RRIRFRPPRLPRPRPRPKARPRP | 0.297 |
| RRIRKRPPRLPRPRPRPLASPRP | 0.0708 |
| RRIRVRPPRLPRPRPRPKAWPRP | 0.0531 |
| RRIRLRPPRLPRPRPRPHRLPRP | 0.166 |
| RRIRQRPPRLPRPRPRPQAWPRP | 0.0305 |
| RRIRCRPPRLPRPRPRPNATPRP | 0.382 |
| RRIRIRPPRLPRPRPRPKIAPRP | 0.00729 |
| RRIRWRPPRLPRPRPRPKLMPRP | 0.31 |
| RRIRFRPPRLPRPRPRPWNKPRP | -0.722 |
| RRIRSRPPRLPRPRPRPTEWPRP | 0.00483 |
| RRIRSRPPRLPRPRPRPDWHPRP | -0.195 |
| RRIRCRPPRLPRPRPRPTLKPRP | 0.017 |
| RRIRVRPPRLPRPRPRPKKLPRP | -0.0765 |
| RRIRPRPPRLPRPRPRPICLPRP | 2.37 |
| RRIRYRPPRLPRPRPRPRAIPRP | -0.36 |
| RRIRNRPPRLPRPRPRPLHRPRP | -0.249 |
| RRIRERPPRLPRPRPRPESSPRP | -0.192 |
| RRIRVRPPRLPRPRPRPMNMPRP | -0.426 |
| RRIRHRPPRLPRPRPRPYTMPRP | -0.393 |
| RRIRARPPRLPRPRPRPVVFPRP | 0.213 |
| RRIRARPPRLPRPRPRPPRYPRP | 0.896 |
| RRIRRRPPRLPRPRPRPNTCPRP | 0.0105 |

| Sequence | shrunken log2 fold change |
| --- | --- |
| RRIRCRPPRLPRPRPRPYESPRP | 0.0203 |
| RRIRYRPPRLPRPRPRPWDRPRP | -0.103 |
| RRIRRRPPRLPRPRPRPGYCPRP | -0.0631 |
| RRIRPRPPRLPRPRPRPVFSPRP | -0.00413 |
| RRIRYRPPRLPRPRPRPVHTPRP | -0.562 |
| RRIRGRPPRLPRPRPRPWVKPRP | 0.0642 |
| RRIRCRPPRLPRPRPRPDMKPRP | -0.996 |
| RRIRLRPPRLPRPRPRPLRFPRP | 0.477 |
| RRIRCRPPRLPRPRPRPVQQPRP | 0.148 |
| RRIRKRPPRLPRPRPRPTIKPRP | 0.104 |
| RRIRKRPPRLPRPRPRPRISPRP | -0.258 |
| RRIRYRPPRLPRPRPRPYNHPRP | -1.5 |
| RRIRKRPPRLPRPRPRPHWQPRP | 0.3 |
| RRIRERPPRLPRPRPRPARMPRP | 0.0587 |
| RRIRRRPPRLPRPRPRPQAPPRP | 0.236 |
| RRIRRRPPRLPRPRPRPPVMPRP | 0.403 |
| RRIRWRPPRLPRPRPRPCFDPRP | 0.172 |
| RRIRYRPPRLPRPRPRPDTYPRP | -0.145 |
| RRIRYRPPRLPRPRPRPMMMPRP | -0.497 |
| RRIRPRPPRLPRPRPRPMFVPRP | -0.254 |
| RRIRQRPPRLPRPRPRPKLCPRP | 0.0303 |
| RRIRTRPPRLPRPRPRPWDCPRP | -0.000687 |
| RRIRGRPPRLPRPRPRPCDVPRP | -0.014 |
| RRIRVRPPRLPRPRPRPSRYPRP | -0.0975 |
| RRIRIRPPRLPRPRPRPIGPPRP | 0.0815 |
